Experiment in all cases: cell-based or functional assay
For experiment [1], the target named is SARS-CoV-2 spike protein, Omicron variant BQ.1 (SARS-CoV-2).
Experiment [2] addresses SARS-CoV-2 spike protein, Omicron variant BQ.1.1 (SARS-CoV-2).
Experiment [3] has as its target SARS-CoV-2 spike protein, Omicron variant BA.2.75.2 (SARS-CoV-2).
The target in experiment [4] is SARS-CoV-2 spike protein, Omicron variant BA.4/5 (SARS-CoV-2).
Experiment [5] deals with SARS-CoV-2 spike protein, Omicron variant XBB (SARS-CoV-2).

B1: MX1070 (protein)
chain 1: QTVVTQEPSFSVSPGGTVTLTCGLSSGSVSTAYFPSWYQQTPGQAPRTLIYGTNTRSSGVPDRFSGSILGNKAALTITGAQADDESDYYCVLYMGRGIVVFGGGTKLTVLGGSSGEIVLTQSPGTLSLSPGETATLSCRASQSFSSDLAWYQQKPGQAPRLLIYGASSRATGIPDRFSGSGSGTDFTLTISRLEPADFAVYYCQQYGSSPPVTFGGGTKVEIKGGGGSGGSGSGGGGSASGSGEVQLVESGGGLIQPGGSLRLSCAASGVIVSYNYMNWVRQAPGKGLEWVSVIYSGGSTFYADSVRGRFTISRDNSKNTLYLQMNSLRAEDTAVYYCARDLGPAGAFDIWGLGTMVTVSSGGSSGQVQLVESGGGVVQPGRSLRLSCAASGFTLSSYGMHWVRQAPGKGLEWVAVISYDGSNKYYVDSVKGRFTISRDNSKNTLYLQMNSLRAEDTAVYYCRWAYWELLPDYYYGMDVWGQGTTVTVSSASGGSGDKTHTCPPCPAPELLGGPSVFLFPPKPKDTLMISRTPEVTCVVVDVSHEDPEVKFNWYVDGVEVHNAKTKPREEQYNSYVVSVLTVLHQDWLNGKEYKCKVSNKALPAPIEKTISKAKGQPREPQVYTLPPCRDELTKNQVSLWCLVKGFYPSDIAVEWESNGQPENNYKTTPPVLDSDGSFFKKLTVDKSRWQQGNVFSCSVLHEALHSHYTQKSLSLSPG
chain 2: DTVMTQSPLSLPVTPGEPASISCRSSQSLLNSNGYNYLDWYVQKPGQSPQLLIYLGSNRASGVPDRFSGSGSGTDFTLKISRVEAEDVGVYYCMQPLQTPLFTFGPGTKVEIKGGSSGEIVLTQSPGTLSLSPGETATLSCRASQSFSSDLAWYQQKPGQAPRLLIYGASSRATGIPDRFSGSGSGTDFTLTISRLEPADFAVYYCQQYGSSPPVTFGGGTKVEIKGGGGSGGSGSGGGGSASGSGEVQLVESGGGLIQPGGSLRLSCAASGVIVSYNYMNWVRQAPGKGLEWVSVIYSGGSTFYADSVRGRFTISRDNSKNTLYLQMNSLRAEDTAVYYCARDLGPAGAFDIWGLGTMVTVSSGGSSGQVTLRESGPALVKPTQTLTLTCTFSGFSLSTRGVCVSWIRQPPGKALEWLAFIDWDDDKYYNTSLKTRLTISKDTSKNQVVLTMTNVHPVDTATYYCARISSHHGSSWCTTFDYWGQGALVTVSAASGGSGDKTHTCPPCPAPELLGGPSVFLFPPKPKDTLMISRTPEVTCVVVDVSHEDPEVKFNWYVDGVEVHNAKTKPREEQYNSYVVSVLTVLHQDWLNGKEYKCKVSNKALPAPIEKTISKAKGQPREPQVCTLPPSRDELTKNQVSLSCAVKGFYPSDIAVEWESNGQPENNYKTTPPVLDSDGSFFLVSKLTVDKSRWQQGNVFSCSVLHEALHSHYTQKSLSLSPG
B1: the IC50, pseudovirus neutralization came to 4.64 ng/mL in experiment [1]; 4.06 ng/mL in experiment [2]; 2.4 ng/mL in experiment [3]; 2.49 ng/mL in experiment [4]; 2.9 ng/mL in experiment [5]. Besides, the IC80, pseudovirus neutralization in experiment [1] came out at 9.16 ng/mL; in experiment [2], 11 ng/mL; in experiment [3], 4.16 ng/mL; in experiment [4], 3.58 ng/mL; in experiment [5] it was 9.71 ng/mL.

The values above are taken from US20240109955A1.
